The target in the experiment is T1, recombinant human insulin-like growth factor-1 (rhIGF-1) (human, UniProt P05019 49-118).
T1 construct: Soluble protein used for crystallization, sedimentation equilibrium and NMR; It was uniformly 13C/15N labelled for the NMR complex with IGF-F1-1; also called human IGF-1; 13C/15N IGF-1
Description: NMR structure of the complex (figure legend).

T1 sequence (P05019 49-118): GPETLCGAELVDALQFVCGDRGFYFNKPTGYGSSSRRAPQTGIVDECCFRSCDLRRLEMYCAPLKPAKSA

B1: phage-derived IGF-1 antagonist peptide IGF-F1-1 (peptide)
peptide: RNCFESVAALRRCMYG
notes: Unlabelled peptide mixed in slight molar excess with 1.5 mM 13C/15N IGF-1 for NMR
For the molecule B1, the binding result is listed as “binds”.

The values are drawn from US20060287510A1 (Genentech, published 2006).
